Experimental data as given in US20210139545A1 (IBA, published 2021).
Changes are numbered by the printed parent chain.

Legend:
[1] = target: T1, cytochrome b562 with C-terminally fused Strep-tagII (E. coli); assay: affinity chromatography, overloaded Sepharose column, washed, biotin elution
T1 construct: also called Cytb562-StrepII; Cytb562-StrepIII

[2] = target: T2, E. coli alkaline phosphatase Strep-tag®II fusion protein (E. coli, UniProt P00634 22-471 = phosphatase); assay: ELISA, mutein coated, BAP-StrepII titrated
T2 construct: mature; also called BAP-StrepII; BAP-StrepIII

[3] = target: T1, cytochrome b562 with C-terminally fused …; assay: affinity chromatography, capture from dilute solution (500 µg applied, 1 mg mutein)
[4] = target: T2, E. coli alkaline phosphatase …; assay: ELISA, second experiment, mutein coated, BAP-StrepII titrated
[5] = target: T1, cytochrome b562 with C-terminally fused …; assay: affinity chromatography, retention after overload; tied to m45 by Table 9 (308 % against 11 %)
[6] = target: T3, Green Fluorescent Protein with C-terminal Strep-tagII (Aequorea victoria (Water jellyfish) …, UniProt P42212 1-237 = GFP, limits assumed); assay: SPR Biacore T100, mutein immobilised at 170 RU, 1:1 global fit
T3 construct: also called GFP-StrepII; GFP-StrepIII
Protocol: (§1) To achieve the immobilization at higher density, mutein m1-9 was used at a concentration of 20 μg/ml and mutein “1” was used at a concentration of 50 μg/ml. […] Prior to analysis, the fusion protein preparations were dialyzed against Buffer W (100 mM Tris-CI pH8, 150 mM NaCl, 1 mM EDTA), and checked via analytical size exclusion chromatography to be essentially free of aggregates (a content of max. 5% was accepted, in most cases it was below 1%) to ensure to measure the interaction of monovalent fusion proteins with immobilized streptavidin muteins only. […] Data were fitted using the kinetic global fit (Langmuir 1:1) and resulting on- and off-rates and deduced dissociation constants are shown in column 4, column 5 and column 6, respectively. BiaCore data were measured by Biaffin GmbH & Co KG, Kassel, Germany.

[7] = target: T4, cytochrome b562 with C-terminal di-tag3 (E. coli); assay: as above
T4 construct: also called Cytb562-di-tag3
Protocol: as §1

[8] = target: T1, cytochrome b562 with C-terminally fused …; assay: as above
Protocol: as §1

[9] = target: T5, Green Fluorescent Protein with C-terminal di-tag3; assay: as above
T5 construct: also called GFP-di-tag3
Protocol: as §1

[10] = target: T3, Green Fluorescent Protein with …; assay: SPR Biacore
Protocol: (§2) The resulting relative immobilized amounts are given in RU (arbitrary units) (column 3). To achieve the low density immobilization both muteins were applied applied at a concentration of 1 μg/ml and a flow rate of 10 μl/min. To achieve the immobilization at higher density, mutein m1-9 was used at a concentration of 20 μg/ml and mutein “1” was used at a concentration of 50 μg/ml. […] Prior to analysis, the fusion protein preparations were dialyzed against Buffer W (100 mM Tris-CI pH8, 150 mM NaCl, 1 mM EDTA), and checked via analytical size exclusion chromatography to be essentially free of aggregates (a content of max. 5% was accepted, in most cases it was below 1%) to ensure to measure the interaction of monovalent fusion proteins with immobilized streptavidin muteins only.

[11] = target: T1, cytochrome b562 with C-terminally fused …; assay: SPR Biacore
Protocol: as §2

[12] = target: T3, Green Fluorescent Protein with …; assay: SPR Biacore T100, mutein immobilised at 4350 RU, 1:1 global fit
Protocol: as §1

[13] = target: T4, cytochrome b562 with C-terminal di-tag3; assay: as above
Protocol: as §1

[14] = target: T1, cytochrome b562 with C-terminally fused …; assay: as above
Protocol: as §1

[15] = target: T5, Green Fluorescent Protein with …; assay: as above
Protocol: as §1

B1: mutein m402 (designed binder)
chain: EAGITGTWYNQLGSTFIVTAGADGALTGTYACARGNAECRYVLTGRYDSAPATDGSGTALGWTVAWKNNYRNAHSATTWSGQYVGGAEARINTQWLLTSGTTEANAWKSTLVGHDTFTKVKPSAAS
notes: Library 1 clone
- Retained Cytb562-StrepII [1]: 111 µg
- Retained Cytb562-StrepII per immobilized mutein [1]: 0.14 µg/µg
- Retained Cytb562-StrepII per immobilized mutein relative to mutein “1” [1]: 111%
- Kd [2]: 92 nM
- yield of Cytb562-StrepII applied [3]: 31%

B2: mutein m4001 (designed binder)
chain: B1 chain with A33G
notes: Library 2 clone
- Kd [4]: 27 nM
- Retained Cytb562-StrepII [1]: 175 µg
- Retained Cytb562-StrepII per immobilized mutein [1]: 0.16 µg/µg
- Retained Cytb562-StrepII per immobilized mutein relative to mutein “1” [1]: 127%
- Kd [2]: 20 nM
- yield of Cytb562-StrepII applied [3]: 34%

B3: mutein“1”-m4 (designed binder)
chain: B1 chain with A31V, C32T, C39S, A104D, W107G, K108F
notes: Library 3 clone on mutein “1”
- (Δ(A405-A595)/Δt)max [4]: 518 mOD
- Kd [4]: 12 nM
- Retained Cytb562-StrepII [1]: 564 µg
- Retained Cytb562-StrepII per immobilized mutein [1]: 0.35 µg/µg
- Retained Cytb562-StrepII per immobilized mutein relative to mutein “1” [1]: 280%
- (Δ(A405-A595)/Δt)max [2]: 716 mOD
- KD(mutein“1”)/KDmutein [2]: 12.2
- Kd [2]: 9 nM
- yield of Cytb562-StrepII applied [3]: 64%

B4: mutein“1”-m23 (designed binder)
chain: B1 chain with A31V, C32T, C39S, A104Y, W107Y, K108A
notes: Library 3 clone on mutein “1”
- (Δ(A405-A595)/Δt)max [4]: 644 mOD
- Kd [4]: 13 nM
- Retained Cytb562-StrepII [1]: 479 µg
- Retained Cytb562-StrepII per immobilized mutein [1]: 0.31 µg/µg
- Retained Cytb562-StrepII per immobilized mutein relative to mutein “1” [1]: 245%
- (Δ(A405-A595)/Δt)max [2]: 968 mOD
- KD(mutein“1”)/KDmutein [2]: 9.2
- Kd [2]: 12 nM
- yield of Cytb562-StrepII applied [3]: 60%

B5: mutein“1”-m36 (designed binder)
chain: B1 chain with A31V, C32T, C39S, A104Y, W107F, K108M
notes: Library 3 clone on mutein “1”
- Retained Cytb562-StrepII [1]: 429 µg
- Retained Cytb562-StrepII per immobilized mutein [1]: 0.32 µg/µg
- Retained Cytb562-StrepII per immobilized mutein relative to mutein “1” [1]: 254%
- (Δ(A405-A595)/Δt)max [2]: 945 mOD
- KD(mutein“1”)/KDmutein [2]: 9.2
- Kd [2]: 12 nM
- yield of Cytb562-StrepII applied [3]: 61%

B6: mutein“1”-m45 (designed binder)
chain: B1 chain with A31V, C32T, C39S, A104Y, W107G, K108F
notes: Library 3 clone on mutein “1”
- Retained Cytb562-StrepII [1]: 472 µg
- Retained Cytb562-StrepII per immobilized mutein [1]: 0.39 µg/µg
- Retained Cytb562-StrepII per immobilized mutein relative to mutein “1” [1]: 308%
- (Δ(A405-A595)/Δt)max [2]: 566 mOD
- KD(mutein“1”)/KDmutein [2]: 6.1
- Kd [2]: 18 nM
- yield of Cytb562-StrepII applied [3]: 67%
- retained Cytb562-StrepII relative to wt streptavidin [5]: 28 fold

B7: mutein“1”-m101 (designed binder)
chain: B1 chain with A31V, C32T, C39S, A104Y, W107F, K108L
notes: Library 5 clone on mutein “1”
- (Δ(A405-A595)/Δt)max [2]: 589 mOD
- KD(mutein“1”)/KDmutein [2]: 7.9
- Kd [2]: 14 nM

B8: mutein“1”-m111 (designed binder)
chain: B1 chain with A31V, C32T, C39S, A104Y, W107L, K108W
notes: Library 5 clone on mutein “1”
- Retained Cytb562-StrepII [1]: 318 µg
- Retained Cytb562-StrepII per immobilized mutein [1]: 0.31 µg/µg
- Retained Cytb562-StrepII per immobilized mutein relative to mutein “1” [1]: 246%
- (Δ(A405-A595)/Δt)max [2]: 492 mOD
- KD(mutein“1”)/KDmutein [2]: 8.5
- Kd [2]: 13 nM
- yield of Cytb562-StrepII applied [3]: 67%

B9: mutein“1”-m41 (designed binder)
chain: EAGITGTWYNQLGSTFIVTAGADGALTGTYVTARGNAESRYVLTGRYDSAPATDGSGTALGWTVAWKNNYRNAHSATTWSGQYVGGAEARINTQWLLTSGTTEAWYSTLVGHDTFTKVKPSAAS
notes: Library 3 clone on mutein “1”
- Retained Cytb562-StrepII [1]: 289 µg
- Retained Cytb562-StrepII per immobilized mutein [1]: 0.2 µg/µg
- Retained Cytb562-StrepII per immobilized mutein relative to mutein “1” [1]: 155%
- (Δ(A405-A595)/Δt)max [2]: 613 mOD
- KD(mutein“1”)/KDmutein [2]: 8.5
- Kd [2]: 13 nM
- yield of Cytb562-StrepII applied [3]: 47%

B10: mutein“1”-m207 (designed binder)
chain: B9 chain with A104T, Y106L
notes: Library 6 clone on mutein “1”, 118 and 119 deleted
- Retained Cytb562-StrepII [1]: 358 µg
- Retained Cytb562-StrepII per immobilized mutein [1]: 0.29 µg/µg
- Retained Cytb562-StrepII per immobilized mutein relative to mutein “1” [1]: 229%
- (Δ(A405-A595)/Δt)max [2]: 493 mOD
- KD(mutein“1”)/KDmutein [2]: 4.1
- Kd [2]: 27 nM
- yield of Cytb562-StrepII applied [3]: 55%

B11: mutein“1”-m302 (designed binder)
chain: B9 chain with A104H
notes: Library 7 clone on mutein “1”, 118 and 119 deleted
- Retained Cytb562-StrepII [1]: 350 µg
- Retained Cytb562-StrepII per immobilized mutein [1]: 0.28 µg/µg
- Retained Cytb562-StrepII per immobilized mutein relative to mutein “1” [1]: 221%
- (Δ(A405-A595)/Δt)max [2]: 726 mOD
- KD(mutein“1”)/KDmutein [2]: 22
- Kd [2]: 5 nM
- yield of Cytb562-StrepII applied [3]: 63%

B12: mutein“1”-m212 (designed binder)
chain: B9 chain with A104H, Y106L
notes: as for B10
- Retained Cytb562-StrepII [1]: 390 µg
- Retained Cytb562-StrepII per immobilized mutein [1]: 0.25 µg/µg
- Retained Cytb562-StrepII per immobilized mutein relative to mutein “1” [1]: 197%
- (Δ(A405-A595)/Δt)max [2]: 607 mOD
- KD(mutein“1”)/KDmutein [2]: 6.5
- Kd [2]: 17 nM
- yield of Cytb562-StrepII applied [3]: 47%

B13: mutein“1”-m301 (designed binder)
chain: B9 chain with A104H, Y106M
notes: as for B11
- Retained Cytb562-StrepII [1]: 400 µg
- Retained Cytb562-StrepII per immobilized mutein [1]: 0.28 µg/µg
- Retained Cytb562-StrepII per immobilized mutein relative to mutein “1” [1]: 225%
- (Δ(A405-A595)/Δt)max [2]: 725 mOD
- KD(mutein“1”)/KDmutein [2]: 11
- Kd [2]: 10 nM
- yield of Cytb562-StrepII applied [3]: 57%

B14: mutein m1-9 (designed binder)
chain: B1 chain with A31V, C32T, C39S, A104E, W107G, K108Y
- (Δ(A405-A595)/Δt)max [4]: 1700 mOD
- Kd [4]: 25 nM
- Kd [6]: 32 nM
- koff [6]: 0.0047 s⁻¹
- kon [6]: 150000 M⁻¹ s⁻¹
- Kd [7]: 0.014 nM
- koff [7]: 1.5e-05 s⁻¹
- kon [7]: 1e+06 M⁻¹ s⁻¹
- Kd [8]: 586 nM
- koff [8]: 0.041 s⁻¹
- kon [8]: 70000 M⁻¹ s⁻¹
- Kd [9]: 0.053 nM
- koff [9]: 1.5e-05 s⁻¹
- kon [9]: 280000 M⁻¹ s⁻¹
- affinity increase relative to mutein “1” [10]: ~10 fold
- affinity increase relative to mutein “1” [11]: ~30 fold
- Kd [12]: 23 nM
- koff [12]: 0.0038 s⁻¹
- kon [12]: 170000 M⁻¹ s⁻¹
- Kd [13]: 0.043 nM
- koff [13]: 1.9e-05 s⁻¹
- kon [13]: 440000 M⁻¹ s⁻¹
- Kd [14]: 485 nM
- koff [14]: 0.025 s⁻¹
- kon [14]: 52000 M⁻¹ s⁻¹
- Kd [15]: 0.079 nM
- koff [15]: 1.7e-05 s⁻¹
- kon [15]: 220000 M⁻¹ s⁻¹
